Measurements published in the supplement of paper PMC7877785.
± gives the uncertainty stated by the source.

Assay: self-splicing fitness, log relative to wild type (ln ratio); higher = more splicing; Tetrahymena group I intron in knt gene, E. coli kanamycin selection, DiMSum; sequences stand for … in CUCUCU…GGAGGGAAAAGUUAUCAGGCAUGCACCUGGUAGCUAGUCUUUAAACCAAUAGAUUGCAUCGGUUUAAAAGGCAAGACCGUCAAAUUGCGGGAAAGGGGUCAACAGCCGUUCAGUACCAAGUCUCAGGGGAAACUUUGAGAUGGCCUUGCAAAGGGUAUGGUAAUAAGCUGACGGACAUGGUCCUAACCACGCAGCCAAGUCCUAAGUCAACAGAUCUUCUGUUGAUAUGGAUGCAGUUCACAGACUAAAUGUCGGUCGGGGAAGAUGUAUUCUUCUCAUAAGAUAUAGUCGGACCUCUCCUUAAUGGGAGCUAGCGGAUGAAGUGAUGCAACACUGGAGCCGCUGGGAACUAAUUUGUAUGCGAAAGUAUAUUGAUUAGUUUUGGAGUACUCGUGGUCG
Method in brief: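 Fitness was computed with DiMSum as the error-weighted combination of replicate fold changes, kanamycin versus none, each normalised to wild type. The library randomised all eight intron nucleotides of the P1ex region, with the intron placed in the knt kanamycin-resistance gene on pET-22b(+) in E. coli BL21(DE3). Six replicate transformations were grown overnight at 37°C or 30°C on LB agar with or without 25 μg/mL kanamycin, plus 100 μg/mL carbenicillin, 50 μM IPTG and 0.2% rhamnose. Pooled colonies were amplicon-sequenced on an Illumina HiSeq 2500.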

| Sequence | self-splicing fitness (ln) (30 °C) | self-splicing fitness (ln) (37 °C) |
| --- | --- | --- |
| UGCCAGCAAUAUUACGCGAA | -1.33 ± 0.11 | 0.357 ± 0.11 |
| UGCCAGCAAUAUUACGCGCG | -0.853 ± 0.083 | -0.528 ± 0.1 |
| UGCCAGCAAUAUUACGCGGG | -3.4 ± 0.2 | -2.44 ± 0.22 |
| UGCCAGCAAUAUUACGCGUC | -2.05 ± 0.12 | -1.8 ± 0.15 |
| UGCCAGCAAUAUUACGCUUG | -2.85 ± 0.16 | -2.33 ± 0.19 |
| UGCCAGCAAUAUUACGGAAA | -1.8 ± 0.1 | -0.0875 ± 0.13 |
| UGCCAGCAAUAUUACGGGCG | -3.1 ± 0.16 | -2.73 ± 0.21 |
| UGCCAGCAAUAUUACGUCUA | -0.347 ± 0.081 | -0.671 ± 0.089 |
| UGCCAGCAAUAUUACGUGAA | -1.73 ± 0.09 | -0.422 ± 0.1 |
| UGCCAGCAAUAUUACGUGCC | -1.03 ± 0.095 | 0.0809 ± 0.15 |
| UGCCAGCAAUAUUACGUUAC | -2.48 ± 0.23 | -3.38 ± 0.31 |
| UGCGAGCAAUAUUACGAAAC | -2.99 ± 0.17 | -3.8 ± 0.34 |
| UGCGAGCAAUAUUACGACUU | -2.13 ± 0.43 | -1.7 ± 0.41 |
| UGCGAGCAAUAUUACGAGUU | -3.05 ± 0.14 | -1.35 ± 0.13 |
| UGCGAGCAAUAUUACGAUUU | -3.11 ± 0.37 | -0.802 ± 0.16 |
| UGCGAGCAAUAUUACGCGUU | -3.38 ± 0.27 | -1.39 ± 0.18 |
| UGCGAGCAAUAUUACGCUCA | – | 0.239 ± 0.26 |
| UGCGAGCAAUAUUACGGCGC | -2.34 ± 0.46 | – |
| UGCGAGCAAUAUUACGGUCU | -2.12 ± 0.15 | -1.45 ± 0.25 |
| UGCGAGCAAUAUUACGUCUG | -1.24 ± 0.1 | -1.36 ± 0.13 |
| UGCGAGCAAUAUUACGUGGG | -4.32 ± 0.43 | -2.69 ± 0.23 |
| UGCGAGCAAUAUUACGUGGU | -3.4 ± 0.18 | -2.63 ± 0.21 |
| UGCGAGCAAUAUUACGUGUA | -2.83 ± 0.11 | -1.01 ± 0.1 |
| UGCUAGCAAUAUUACGAAUG | -0.8 ± 0.1 | 0.288 ± 0.16 |
| UGCUAGCAAUAUUACGACAG | -0.698 ± 0.059 | 0.337 ± 0.093 |
| UGCUAGCAAUAUUACGACCG | -0.534 ± 0.17 | -0.458 ± 0.19 |

| Sequence | self-splicing fitness (ln) (30 °C) | self-splicing fitness (ln) (37 °C) |
| --- | --- | --- |
| UGCUAGCAAUAUUACGACGA | -0.229 ± 0.13 | 0.191 ± 0.12 |
| UGCUAGCAAUAUUACGAGCC | -0.0254 ± 0.11 | -0.681 ± 0.2 |
| UGCUAGCAAUAUUACGAUAU | -2.3 ± 0.23 | -2.25 ± 0.21 |
| UGCUAGCAAUAUUACGCAAG | -3.87 ± 0.33 | -3.11 ± 0.25 |
| UGCUAGCAAUAUUACGCAGU | -3.21 ± 0.31 | -2.51 ± 0.43 |
| UGCUAGCAAUAUUACGCAUU | -3.79 ± 0.39 | -1.85 ± 0.34 |
| UGCUAGCAAUAUUACGCCCG | -0.583 ± 0.19 | 0.807 ± 0.3 |
| UGCUAGCAAUAUUACGCGAA | -2.97 ± 0.32 | -1.88 ± 0.21 |
| UGCUAGCAAUAUUACGCGAC | -2.66 ± 0.26 | -1.58 ± 0.3 |
| UGCUAGCAAUAUUACGCGGA | -2.16 ± 0.12 | -1.24 ± 0.12 |
| UGCUAGCAAUAUUACGCUGG | -3.07 ± 0.23 | -2.25 ± 0.32 |
| UGCUAGCAAUAUUACGGAAG | -3.4 ± 0.35 | -2.31 ± 0.39 |
| UGCUAGCAAUAUUACGGAUC | – | -0.421 ± 0.19 |
| UGCUAGCAAUAUUACGGCUC | -1.4 ± 0.2 | -1.33 ± 0.23 |
| UGCUAGCAAUAUUACGUAUC | – | -2.07 ± 0.38 |
| UGCUAGCAAUAUUACGUAUG | -1.1 ± 0.067 | -0.309 ± 0.089 |
| UGCUAGCAAUAUUACGUCAU | -2.72 ± 0.24 | -2.61 ± 0.22 |
| UGCUAGCAAUAUUACGUCGG | -2.68 ± 0.25 | -0.202 ± 0.23 |
| UGCUAGCAAUAUUACGUCUC | -3.59 ± 0.16 | -2.91 ± 0.2 |
| UGCUAGCAAUAUUACGUCUU | -1.85 ± 0.093 | -0.906 ± 0.088 |
| UGCUAGCAAUAUUACGUUCU | -0.686 ± 0.092 | -0.861 ± 0.12 |
| UGGAAGCAAUAUUACGACGC | -1.66 ± 0.22 | -1.05 ± 0.28 |
| UGGAAGCAAUAUUACGAUAA | -1.6 ± 0.12 | -0.36 ± 0.15 |
| UGGAAGCAAUAUUACGCAGC | -2.22 ± 0.42 | -2.6 ± 0.26 |
| UGGAAGCAAUAUUACGCCAG | -1.55 ± 0.18 | 0.0553 ± 0.21 |
| UGGAAGCAAUAUUACGCGUG | -0.258 ± 0.091 | -0.135 ± 0.12 |

| Sequence | self-splicing fitness (ln) (30 °C) | self-splicing fitness (ln) (37 °C) |
| --- | --- | --- |
| UGGAAGCAAUAUUACGCUGC | -3.48 ± 0.32 | -2.15 ± 0.38 |
| UGGAAGCAAUAUUACGGCAG | -1.15 ± 0.16 | -0.772 ± 0.25 |
| UGGAAGCAAUAUUACGGCCG | -0.385 ± 0.18 | -0.0898 ± 0.3 |
| UGGAAGCAAUAUUACGGGCA | -0.216 ± 0.083 | -0.335 ± 0.087 |
| UGGAAGCAAUAUUACGGGUU | -2.85 ± 0.18 | -2.38 ± 0.41 |
| UGGAAGCAAUAUUACGGUAG | -1.89 ± 0.12 | -1.82 ± 0.11 |
| UGGAAGCAAUAUUACGUAAG | -1.07 ± 0.12 | -0.81 ± 0.13 |
| UGGAAGCAAUAUUACGUACA | -0.926 ± 0.1 | 0.227 ± 0.11 |
| UGGAAGCAAUAUUACGUCGG | -0.128 ± 0.11 | -0.162 ± 0.11 |
| UGGAAGCAAUAUUACGUGUG | -1.06 ± 0.073 | -0.706 ± 0.091 |
| UGGAAGCAAUAUUACGUUAU | -2.23 ± 0.14 | -3.09 ± 0.2 |
| UGGAAGCAAUAUUACGUUCG | 0.201 ± 0.087 | -0.347 ± 0.096 |
| UGGCAGCAAUAUUACGAAUA | -1.36 ± 0.12 | -0.17 ± 0.13 |
| UGGCAGCAAUAUUACGAGAG | -2.95 ± 0.21 | -2.74 ± 0.29 |
| UGGCAGCAAUAUUACGAGCC | -2.1 ± 0.29 | -2.37 ± 0.44 |
| UGGCAGCAAUAUUACGAUCA | -0.413 ± 0.14 | -0.198 ± 0.12 |
| UGGCAGCAAUAUUACGCAAA | -1.87 ± 0.23 | -0.513 ± 0.26 |
| UGGCAGCAAUAUUACGCAGU | -4.13 ± 0.36 | -2.57 ± 0.21 |
| UGGCAGCAAUAUUACGCAUU | -1.05 ± 0.097 | -0.267 ± 0.089 |
| UGGCAGCAAUAUUACGCGAA | -0.273 ± 0.088 | -0.139 ± 0.1 |
| UGGCAGCAAUAUUACGCGUU | -1.6 ± 0.077 | -0.555 ± 0.081 |
| UGGCAGCAAUAUUACGGAAU | -2.54 ± 0.12 | -1.22 ± 0.17 |
| UGGCAGCAAUAUUACGGACG | 0.0917 ± 0.19 | 0.916 ± 0.24 |
| UGGCAGCAAUAUUACGGAGU | -2.61 ± 0.17 | -3.96 ± 0.31 |
